These results are taken from US20110300100A1 (CSL, published 2011).

Assay [1] concerns the target T1, wild-type murine IL-11Rα on stably transfected Ba/F3 cells (with co-receptor murine gp130) (murine, UniProt Q64385 24-432).
T1 sequence (looked up): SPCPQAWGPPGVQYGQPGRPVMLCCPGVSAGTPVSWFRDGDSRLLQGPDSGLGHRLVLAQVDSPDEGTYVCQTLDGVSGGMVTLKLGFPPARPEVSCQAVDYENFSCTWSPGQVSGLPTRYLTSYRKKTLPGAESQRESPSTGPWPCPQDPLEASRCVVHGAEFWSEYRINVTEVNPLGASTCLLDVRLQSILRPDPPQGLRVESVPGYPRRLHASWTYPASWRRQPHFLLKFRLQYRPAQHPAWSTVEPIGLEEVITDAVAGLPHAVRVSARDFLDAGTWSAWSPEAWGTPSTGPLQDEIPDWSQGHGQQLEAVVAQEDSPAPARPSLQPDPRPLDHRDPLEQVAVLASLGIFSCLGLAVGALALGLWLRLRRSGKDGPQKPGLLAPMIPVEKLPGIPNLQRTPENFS
Nature of the assay: cell-based or functional assay.

Assay [2] concerns the target T2, mIL-11Rα-Fc (murine, UniProt Q64385 24-372).
T2 construct: Coated on the ELISA plates; not shown: Fc part of the bought fusion protein
T2 sequence (looked up): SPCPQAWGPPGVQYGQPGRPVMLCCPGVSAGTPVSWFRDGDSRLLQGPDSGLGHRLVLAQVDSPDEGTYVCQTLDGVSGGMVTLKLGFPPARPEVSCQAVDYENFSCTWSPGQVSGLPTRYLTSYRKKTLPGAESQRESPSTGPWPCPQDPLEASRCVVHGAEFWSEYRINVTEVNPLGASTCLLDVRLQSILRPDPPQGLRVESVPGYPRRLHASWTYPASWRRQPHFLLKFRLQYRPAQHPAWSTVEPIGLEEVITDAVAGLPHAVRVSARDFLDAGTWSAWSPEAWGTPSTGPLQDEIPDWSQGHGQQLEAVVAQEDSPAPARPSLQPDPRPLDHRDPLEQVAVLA
Kind of assay: IL-11Rα binding ELISA.

In assay [3] the target is T2, mIL-11Rα-Fc. Nature of the assay: competition ELISA, soluble protein against phage displayed IL-11 variants on coated mIL-11Rα-Fc. How it is done: The affinity of the selected IL-11 mutants for IL-11Rα was determined in a competition ELISA experiment. […] After incubation for 2 hours at room temperature, the plates were washed and bound phage were then labeled with an anti-M13 polyclonal antibody conjugated to horseradish peroxidase. After the removal of excess antibody by washing with PBS containing 0.05% Tween 20, TMB substrate was added to each well and incubated for 10 minutes before the reaction was quenched by the addition of 2M phosphoric acid. Absorbance at 450 nm was then determined for each well by analysis on a microtitre plate reader.
Clear differences were observed between the affinities of the mIL-11-W147A and mutant proteins for binding to IL-11Rα-Fc.

The target of assay [4] is T1, wild-type murine IL-11Rα on stably …. Kind of assay: cell-based or functional assay. This is another data set of the same source.

B1: Δ1.21 (PEGylated and truncated modified form of clone 1.21, W147C, amino acids 10-178 of SEQ ID NO:12) (ligand)
chain: VSSDPRADLDSAVLLTRSLLADTRQLAAQMRDKFPADGDHSLDSLPTLPAIDYTLGSLQLPGVLTRLRVDLMSYLRHVQWLRRAGGPSLKTLEPELGALQARLERLLRRLQLLMSRLALPQAAPDQPVIPLGPPASACGSIRAAHAILGGLHLTLDWAVRGLLLLKTRL
modifications: 40 kDa mPEG2-maleimide on Cys147 (position corresponding to position 147 of SEQ ID NO:12)
notes: His-tag and first nine residues (which carried the optimized thrombin site, residues 6 and 7 to L and V) removed by thrombin; N-terminus Val10-Ser11-Ser12; also called PEGylated mutein; pegylated mouse IL-11 mutein Δ1.21
On to B1, for which the “fold reduction of the ability to antagonize IL-11-induced Ba/F3 cell proliferation, relative to non-PEGylated 1.21” value in assay [1] is approximately 10 fold. Further, the “fold reduction of binding affinity relative to non-PEGylated 1.21” value in assay [2] is approximately 5 fold.

B2: IL-11 mutant 1B.382 (murine FMQIQ and W147A IL-11 mutein), N-terminal hexahistidine-tagged (ligand)
chain: PGPPAGSPRVSSDPRADLDSAVLLTRSLLADTRQLAAQMRDKFPADGDHSLDSLPTLFMQIQTLGSLQLPGVLTRLRVDLMSYLRHVQWLRRAGGPSLKTLEPELGALQARLERLLRRLQLLMSRLALPQAAPDQPVIPLGPPASAAGSIRAAHAILGGLHLTLDWAVRGLLLLKTRL
notes: Mutein of mature murine IL-11 with FMQIQ at 58-62 and W147A; also called clone 1B.382; not shown: N-terminal hexahistidine tag from the modified pET15b vector
For the molecule B2, in assay [3], the “fold higher affinity relative to W147A IL-11” value was found to be 20 fold. Moreover, the “IC50 (nM), inhibition of IL-11-induced proliferation of IL-11Rα/gp130 Ba/F3 cells (MTT)” value (“IC50 (nM), inhibition” for short) in assay [4] is 0.49 nM.

B3: mIL-11-W147A, N-terminal hexahistidine-tagged (ligand, not shown: small tags and cut ends)
chain: PGPPAGSPRVSSDPRADLDSAVLLTRSLLADTRQLAAQMRDKFPADGDHSLDSLPTLAMSAGTLGSLQLPGVLTRLRVDLMSYLRHVQWLRRAGGPSLKTLEPELGALQARLERLLRRLQLLMSRLALPQAAPDQPVIPLGPPASAAGSIRAAHAILGGLHLTLDWAVRGLLLLKTRL
Turning to B3, the “IC50 (nM), inhibition” value in assay [4] stood at 14 nM.

B4: IL-11 mutant 1.21 (murine PAIDY and W147A IL-11 mutein), N-terminal hexahistidine-tagged (ligand)
chain: PGPPAGSPRVSSDPRADLDSAVLLTRSLLADTRQLAAQMRDKFPADGDHSLDSLPTLPAIDYTLGSLQLPGVLTRLRVDLMSYLRHVQWLRRAGGPSLKTLEPELGALQARLERLLRRLQLLMSRLALPQAAPDQPVIPLGPPASAAGSIRAAHAILGGLHLTLDWAVRGLLLLKTRL
notes: Mutein of mature murine IL-11 with PAIDY at 58-62 and W147A; not shown: N-terminal hexahistidine tag from the modified pET15b vector
On to B4, for which the “fold higher affinity relative to W147A IL-11” value in assay [3] is 20 fold. In addition, in assay [4], the “IC50 (nM), inhibition” value is 0.54 nM.
